Results taken from the domain aggregation screens of Martell et al. (2025).

Experiment: soluble fraction after stress (log2 fold change); higher = more stays soluble; pooled small domains, quantitative proteomics
Conditions: stress: 75 degC
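Note: 20 min heating vs room temperature control held 20 min.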

Row | Sequence | soluble fraction (log2)
1 | HMVVLPGEVVALKIIQTGSSKDQGVGYLEDGTMVVVDGAKNSIGKTIEIQISRSHQTVAGRMLFGIAMS | -2.72
2 | HMVVQTELVRISITSLSGEDIRRLVQIKVVGATIEPFEGGGFLITGTAEQIAKAKDFLNSMSTEF | -2.42
3 | HMVVRKHDRYYTPEHRKLLMDTYERTNKYPTKQDMSELAKIIGVLPIKILWWYTHRRRQDRRKGEESSSP | 0.0496
4 | HMVVTMEKIVVNDGGIRIDTYLADKLNISRSKVAKMLENNILVNNVKVKPSYKVTNNDIIEVEEYV | -1.86
5 | HMVVVLPGETIKIDLIREGKDKQALGYLEDGTMIVVDNAKHLIGKNVEIEIDNVLPKEAGRVIFASLHGA | -0.388
6 | HMVVVMNADAEADEIKRVKWNLEQMLFRTQVIYGVKRIVIGAIGDQREVDLSEIEQMPKVDKIVRISK | -2.24
7 | HMVVVPDVKGLKIEEAAEFFKNNNLHYNVIDSVFSKDVEPGAIVELSPLAGSKVKEGRIVFITVNALTS | -1.12
8 | HMVVVVELTENEKAVQDVLTKNEGSLEISDLKTKLELSGKQWDKALKGLAKHGITQVAKVDGVVTVSL | -0.381
9 | HMVWMIEKDQSVILVNKLERIQVEALGKALENGNFGDRIRVINNKSGQKLLGIVESEKKIQIISKI | -2.92
10 | HMVYLPGEEIPLKIIQEGKESGQGVGYLEDGTMVVVENGRRYLNQEVLVQVTKILQTNAGRLIFAVP | -2.6
11 | HMVYLPSSIKNIPTKYGEMMVANFKMDELQANSKNGWVSMVISERREPSEKGATHYAYVNTY | 0.484
12 | HMVYNQYILTQSVRLREEPGISGRVIRLLETGTTVELVDTVVVNKDDYDWVWVKLSDGAVGWIIKSAIDI | -1.57
13 | HMWDEMKDQKLVEALLLLREDERKLIYQHVFEERTFDDISRINGLPPYKVKGIYYYAIRKIRKWMG | -2.26
14 | HMWGQDVLFTIDKKEFKGKLLEQSDKHTTFLPDGQKTPQKIPNRLIKEIHLGSNKIIDFGNDFLI | -0.19
15 | HMWPDDAIALPTRDGQDVGGAQERTMLAFASGAAGIRTVEEINPDGSITRLRTRYGWPTFETEGARTAAAE | -0.0272
16 | HMWTIDPLDWKTENADQIVEKVMSEAKENAIILLHDRYEASVEAALRIVDLLKEQGYTFVTADKLV | -0.154
17 | HMWTKKELWNAIAKLPKKQRTVVMMRIAQNLPYKDISEITGMSIGSAKVNYHHAVNSLKQWLS | -0.746
18 | HMWTPLVVAVLIGGTHRFGELRAAVGGITPKVLTETLRSMERDGLVVREQTPGVPPRVDYALTPLGA | -0.493
19 | HMYAGTWISESGQWKYRNDDGSFAKGWFQDLDSRWYYFDANGHMLSDTLTPDGYRLGEDGAWVND | 0.0742
20 | HMYDESVFTGEYHYYYEKLSDDDKLIYRQIYAMMQKRMDGISLNTTDTDNVSRIQQFVLLDNPQF | -2.61

Row | Sequence | soluble fraction (log2)
21 | HMYDKKVFRLLFILNQLDSRKKVSTGELAKEFNVSPRTVQRDIVLLNTTGFPIISLEKGYHSFMEGFSLK | -1.19
22 | HMYDPVNEIGRVLKKIRQERSLTLDNVAEITGVSKTMLGQIERGVSVPTISVLWKIAKGLQVSLSTLLNE | -3.24
23 | HMYEGLPVTLIIDGRVIEANLAKANRDMAWLERELANSGVRSHHDVFFATLDSRGQLYYQVKN | -1.04
24 | HMYELDIYPNPAIDKINVLLPSSTTLPVKVEIYDIMGKKVNSLLTTKKAFTIETDQFEKGIYFVKA | 0.331
25 | HMYELREGDVVSVRILSQTGQNSYIASFAGGRFSVTSERAFAPGTVFSASVSLKDGTLVLSPL | -3.6
26 | HMYFEDEELDRFVGTPAGAYTEEDVEEFRDVLLSLDIEEVPSWVRSLQLRGIDFPETLRPELYLL | -3.01
27 | HMYGQEVKVLGLFGDRAFIKVDEKSAVIRIGQSHQNVQLKSISNQKAILLVDNKDIALGLGDSYQSA | -1.69
28 | HMYGVAEFDEKGNVLSIEEKPVQPKSNYAVVGLYFYPNKVVGVASGIKPSARGELEITTVNQTFLRDEELK | 0.204
29 | HMYHNKFADLAGFIAFNEKNEEIFTFGKYKGQNVKEVFQRDIGYYGWLQNADFPLYTKKVFTAIQLRSR | -2.44
30 | HMYHPGFEALREVARQGSFIKAARALGISGPAVSKQIKSLEARLNLVLLHRTTRAVTLTEAGQRLTEILD | -2.14
31 | HMYIDNVTIYDVGFNERIVHALERAGVKNLYDLSQMNFYQLQRIRNLGASSLEKVINRIHSYGILLKNES | -0.902
32 | HMYIEKTAYINDTAVNVRKSATTDSDVIKVLALNTEITIIGEENDWYKVKSGNDIGYIAKRLVSDQKKE | -0.187
33 | HMYIKYETVLQNITERIAALRKNGTLVLDGERTLAAEFDASRGTIRKAMRQLEENGTILREGYVTRILPE | -1.95
34 | HMYIVVPDLSKKDINEVANILAAQSLRFQVIDSANFRSDFPKNAVISQKPLAGSEVKVNKKIYLQLNPS | -0.43
35 | HMYLEARVKSTTPILSKPNELGKSLGKLYTNDFVALVSLHKNGLDSYYRTANGGYINAADVVIDRDV | -1.49
36 | HMYLPLREVVFNALRTAIIHGEFKPGERLMEMHLAKSLGVSRTPVREAMRMLELEGLVVMIPKKGAEVAR | -2.93
37 | HMYMKMNDRIRSRRKELKMTQSVLAKLVGVNRVTITGWESGDYKPGGENLQALAAALEKTPQWLLDGKD | -2.82
38 | HMYMTTADADMWKYVNTGRYNNDIQLMEEYKNRSMDSFEVITPEQQRKYNKAAMNLNSYYAWADPSYKPNP | -0.483
39 | HMYMWQVEDLLRANELDIENIKKTIIDHYQLDDAQKSELTRWYEDLINMMRLEGVTKEGHLQINK | -2.02
40 | HMYNSYALTARELELVNYVLKGNSRREMAEDSGLKENTVASYMKRLYRKIKVHSRKELKELFM | -0.151

Row | Sequence | soluble fraction (log2)
41 | HMYPDNEQTLSKLAFEFFKKRNIPISQSNINQIVTKSLGDRENLYNELLKIENFSTSGKKLTDNVIKKLIN | -0.0858
42 | HMYPFSEETLKEKIREYLKTNRSINRRVLEREFYIRKQTALNWLNRLVDSGFLIKEGVRNSPVYFLAE | -0.884
43 | HMYPMQNYSTIIGVIELRQQSVGYATTQKRYGIGSSTVTLIMKRFKELGLTLEELRAMPPKAVEVAFYPPE | -1.69
44 | HMYPNEFPRKVMSVFESSGLEMFRTIEMLLAIPEYETPLPYGSGVSRSDIFVLAKSAGNLVSITV | -0.117
45 | HMYQFFVDPGQIQGKRVTITGSDVNHIKNVLRMRIGEEIAVSNGKDGLEYRFGIDEILEDEVIGTLRFVKE | -1.61
46 | HMYRIGELAKLADVTPDTIRYYEKQQMMDHDVRTEGGFRLYSDNDLQRLKFIRYARQLGFTLEAIRELLSI | -2.27
47 | HMYRWSEEIFEKLRSDIMAALDLSREQNDEEIYRFIETEVEEYSQNNLLTLKEREQLEHLLFNSL | -1.44
48 | HMYSKVSFTVSVGMTSERVSASLKALGIIDDSAKFNRYLVSNGYSTRIKVGTVELQAGQSYAEIASKLV | -3.88
49 | HMYSLSELERIKNFLTGYMSDYSIMMLDANEITNQVDISLKDYSDDNIESIKAAVLSHGGKTDYLNFIDDS | -0.926
50 | HMYSQEEKRYMEIMEIKPQELSAENLKKQYKKLVKKYHPDLHQDDKQAAEEKFKQLTNAYQVLMRRF | -0.474
51 | HMYSSASKEEIDQLMKRLILNLDAKGYFWPQDKEKSLKLYLHNLFSKLPLNSSDIRFLHGLIRALSEE | -1.3
52 | HMYSSIIGIAFTRAENKPAAPTGGSYSNPHPVDGNWKAAPYDGDGNLWYSIRHFNENVDIQDREWSDPTLG | -0.238
53 | HMYSYSGSVINTYKVPVSVVLKDANGSAIASWDLPVDQSLGISAKDIATSSGTIEITGDGVNETKTVTFTK | -0.12
54 | HMYTGSEGMAGLEGRAVTEVGPEAGTVLVKGEYWQARSDEPIATDRKIRVIRLEGLRLRVAEIHPEG | -0.45
55 | HMYTPDYLSDLMVRMAHHSTAIEGNTLTQGETKSVLVDGYIPRAMDMRELNEVLNYKAFMTFLVE | -0.0939
56 | HMYTTHTQSELNEAARFNGRATYQKGIYYNESKKEHFKVVNGKYQALPNVKQVNGDSWIDKTGITHKG | -0.324
57 | HMYTVQQLARLAGITPRTLRHYDAIGLLKPTRVGENGYRYYGSEALLRLQSILLYRELDMPLEDIRRVLDS | -3.5
58 | HMYVPEVPVPDLLGRSEEEAKNLIEDLGLVFKVSKREYSKEYDEGHVMEQSVDEGAKVKENYPVEVVISR | 0.181
59 | HMYYDDEELDDYRGKASDAYTAAEVEQFEEVLTTMRPEEVHGWLRSLQLRGVALPDALKDEAYMIVSEQAE | -0.0106
60 | HMYYIITNGKYWVIENPIRPGEYMESTKSSNAKQFTFKQAKNLLNARSKKLGWIRNGYSMVGED | -2.46
